Residue numbers refer to the chain shown, from its start.
B1: F1.3.9 human-murine chimeric antibody (antibody, human IgG1, kappa, V domains shown)
VH: QVQLQQPGTELVKPGASVKLSCKASGYTFTSYWIHWVKQRPGQGLEWIGNINPPNAGTNYNEKFKSKATLTVDKSSSTAYMQLSSLTSEDSAVYYCARGRWLLHDYWGQGTTLTVSS
VL: DIQMTQSPASLSISVGETVTITCRASENIYSNLAWYQQKQGKSPQLLVYGTKNLAEGVPSRFSGSGSGTQYSLKINSLQSEDFGNYYCQHFWGTPYTFGGGTKLEILR
B2: F1.111.11 human-murine chimeric antibody (antibody, human IgG1, kappa, V domains shown)
VH: EVQLQQSGPELVKPGASVKISCKASGYTFTDYYMNWVKQSHGKSLEWIGDIYPNNGDTTYNQRFKGKATLTVDKSSSTAYMELRSLASEDSAVYYCACPYNNPFGYWGQGTLVTVSA
VL: DVVMTQTPLSLPVSLGDQASISCRSSQSLVHSNGNTYLHWYLQKPGQSPKLLIYKVSNRFSGVPDRFSGSGSGTDFTLKISRVEAEDLGVYFCSQSTHVPWTFGGGTKLEIKR
B3: F2.39.2 human-murine chimeric antibody (antibody, human IgG1, kappa, V domains shown)
VH: QVQLQQSGAELVRPGASVKVSCKASGYTFTDYEMHWMKQTPVHGLEWIGANEPETGRSAYDQKFKGKATLTADKSSSTAYMELRSLTSEDSAVYYCTRFYSFAYWGQGTLVTVSA
VL: B2 VL with S28G, S32N, S96N, W101P
B4: F2.23.8 human-murine chimeric antibody (antibody, human IgG1, kappa, V domains shown)
VH: B3 VH with V20L, M37V, I48F, N51I, E52D, R57G, S58T, D61N, K65R, G66A
VL: B2 VL with H39Q, S81T, W101Y, G105S
B5: F2.92.1 human-murine chimeric antibody (antibody, human IgG1, kappa, V domains shown)
VH: QVQLQQSGAELVRPGASVKLSCKASGYIFSDYEIHWVKQTPVHGLECIGAVDPETGGTAYNQKFKGKATLTADKSSSTAYMELRSLTSEDSAVYFCTRFYSFAYWGQGTLVTVST
VL: B2 VL with A19G, H39Q, S94C, P100L, W101P
B6: F1.62.9 human-murine chimeric antibody (antibody, human IgG1, kappa, V domains shown)
VH: QVQLQQSDAELVKPGASVKISCKVSGYIFTDHTIHWMKQRPEQGLEWIGYIYPRDGSIKYNENFKGKATLTADKSSSATYMQLNSLTSEDSAVYFCARPIYYDYAYYFDYWGQGTTLTVSS
VL: B2 VL with T7S, S26R, L51V, W101Y
B7: F1.118.4 human-murine chimeric antibody (antibody, human IgG1, kappa, V domains shown)
VH: QVQLQQSGAELAKPGASVKLSCKASGYSFTSYWIHWVKQRPGQGLEWIGYINPSSGYTKYNQKFKDKATLTADKSSSTAYMQLSSLTYEDSAVYYCARFGSSSFYFDYWGQGTTLTVSS
VL: DIVLTQSPASLAVSLGQRATISCRASQSVSSSSYSYMHWYQQKPGQPPKLLIKYASNLDSGVPARFSGSGSGTDFTLNIHPVEEEDTATYYCQHSWEIPAFGGGTKLEIKR
B8: F1.153.1 human-murine chimeric antibody (antibody, human IgG1, kappa, V domains shown)
VH: QIQLVQSGPELKKPGETVKISCKASGYTFTTAGMQWVQKMPGKGFKWIGWINTHSGEPQYAEDFKGRFAFSLETSASTAYLQISNLKNEDTATYFCARSFYYHGSSFFYFDYWGQGTTLTVSS
VL: DIVMTQSQKFMSTTVGDRVSITCKASQNVGTAVAWYQQKPGQSPKLLIYSASNRYTGVPDRFTGSGSGADFTLTISNMQSEDLADYFCQQYSRYPLTFGAGTKLELKR
B9: F2.55.11 human-murine chimeric antibody (antibody, human IgG1, kappa, V domains shown)
VH: EVKLVESGGGLVKPGGSLKLSCAASGLTFSTCTMSWVRQTPAKRLEWVATISSGGGNTYYPDSVKGRFTISRDNARNTLYLQMSSLRSEDTAMYYCVRLYYDGSPYAMDYWGQGTSVTVSS
VL: DIQMTQTTSSLSASLGDRVTISCRASQDISNHLNWYQQKPDGTVKLLIYYTSRLHSGVPSRFSGSGSGTDYSLTISNLEQEDIATYFCQQDSKPPPTFGSGTKLEIKR
B10: F1.9.19 human-murine chimeric antibody (antibody, human IgG1, kappa, V domains shown)
VH: DVQLQESGPGLVKPSQSLSLTCSVTGYSITSGYYWNWIRQFPGNRLEWMAYISYDGINNYNPSLKNRISIARDTSTNQFFLKLNSVTSEDTATYYCATTTEVALFDHWGQGTTLTVSS
VL: DVLLTQTPLSLPVSLGDQASISCRSSQNIVHGNGNTYLEWFLQKPGQSPKLLIYKVSNRFSGVPDRFSGSGSGTDFTLKISRVEAEDLGLYYCFQASHVPWTFGGGTKLEIKR
B11: F2.154.1 human-murine chimeric antibody (antibody, human IgG1, kappa, V domains shown)
VH: QVQLQQSGAELVRPGASVKLSCKASGYRFTDYEMHWVKQTPVHGLEWIGTIDPETGNTAYTQKFMDKATLTADKSSSTAYMELRSLTSEDSAVYYCTRGYSFTYWGQGTLATVSA
VL: B10 VL with L4M, G32S, E39Q, F41Y, Y54F, L90V, A96G, W101F, G105T
B12: F2.169.2 human-murine chimeric antibody (antibody, human IgG1, kappa, V domains shown)
VH: EVQLVETGGGLVQPKGSLKLSCAASGFSFNTNAMNWVRQAPGKGLEWVARIRSKSNNYATYYADSVKDRFTISRDDSQSMLYLQMNNLKTEDTAMYYCVRDGYYVLFAYWGQGTLVTVSA
VL: B10 VL with L4M, S25F, N28S, H31N, G32S, L90V, A96G, W101F, G105T
B13: F1.136.7 human-murine chimeric antibody (antibody, human IgG1, kappa, V domains shown)
VH: EVQLQQSGPVMVKPGPSVKISCQTSGFTFTDYYIHWVKQSHGKSLEWIGLVFPYDGGTNYNQKFKDKATLTLDTSSSTAYMELNSLTSEDSAVYYCARAGGFSYALNYWGQGTSVTVSS
VL: DIQMTQSPSSLSASLGGKVTITCKASQDINNYIAWYQHKPGKGPRLLIHFTSTLQPGIPSRFSGSGSGRDYSFSISNLEPEDIATYYCLQYDNLLLTFGAGTKLELKR
B14: F1.145.22 human-murine chimeric antibody (antibody, human IgG1, kappa, V domains shown)
VH: QVQLQQSGTDLARPGASVKLSCKASGYTFTSFGISWVKQRTGQGLEWIGEIYPRSGSPYYNEKFTGKATLTADKSSSTAYMELRSLTSEDSAVYFCAKDFGSSYVFDYWGQGTALTVSS
VL: DIQMTQSPASLSASVGETVTITCRASENIYSYLTWYQQKQGKSPQLLVYNAKTLAEGVPSRFSGSGSGTQFSLKINSLQPEDFGTYYCQHHYGTPPTFGTGTKLDLKR

Molecular target: T1, murine GPC3-his protein (Sino Biological, Cat. No. 50989-M08B) (murine, UniProt Q8CFZ4 25-558)
T1 construct: Bought protein; also called murine GPC3 protein
Assay: ELISA, coated murine GPC3-His;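 note: antigen coated on plates at 1 µg/mL, test antibody bound for 2 h at 37 °C, detected with HRP-conjugated secondary antibody and TMB substrate after acid stop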

T1 sequence (Q8CFZ4 25-558 limits assumed): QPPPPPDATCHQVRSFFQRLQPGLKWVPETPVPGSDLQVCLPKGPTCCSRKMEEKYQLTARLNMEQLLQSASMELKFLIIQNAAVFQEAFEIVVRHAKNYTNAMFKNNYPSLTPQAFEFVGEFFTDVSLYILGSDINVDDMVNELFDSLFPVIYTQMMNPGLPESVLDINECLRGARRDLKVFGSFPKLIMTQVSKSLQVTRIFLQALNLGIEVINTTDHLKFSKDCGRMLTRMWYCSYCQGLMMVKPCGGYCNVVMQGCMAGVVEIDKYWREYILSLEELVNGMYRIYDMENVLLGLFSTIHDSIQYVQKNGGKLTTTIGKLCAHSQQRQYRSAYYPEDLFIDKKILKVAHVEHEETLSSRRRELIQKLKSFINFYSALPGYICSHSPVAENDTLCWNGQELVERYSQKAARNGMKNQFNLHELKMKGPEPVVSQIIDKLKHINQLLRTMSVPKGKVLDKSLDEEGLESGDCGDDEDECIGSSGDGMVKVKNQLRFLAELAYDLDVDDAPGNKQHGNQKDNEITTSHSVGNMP

Row | Binder | OD450 at 0.0001 nM antibody [OD450 nm] | OD450 at 0.001 nM antibody [OD450 nm] | OD450 at 0.01 nM antibody [OD450 nm] | OD450 at 0.1 nM antibody [OD450 nm] | OD450 at 1 nM antibody [OD450 nm] | OD450 at 10 nM antibody [OD450 nm] | OD450 at 100 nM antibody [OD450 nm]
1 | B1 | 0.05 | 0.04 | 0.04 | 0.05 | 0.18 | 0.18 | 0.37
2 | B2 | 0.06 | 0.13 | 0.62 | 2.04 | 2.67 | 2.6 | 3.01
3 | B3 | 0.05 | 0.06 | 0.07 | 0.05 | 0.05 | 0.05 | 0.06
4 | B4 | 0.05 | 0.06 | 0.07 | 0.04 | 0.06 | 0.05 | 0.06
5 | B5 | 0.04 | 0.05 | 0.05 | 0.07 | 0.05 | 0.05 | 0.07
6 | B6 | 0.04 | 0.04 | 0.05 | 0.04 | 0.04 | 0.06 | 0.28
7 | B7 | 0.05 | 0.05 | 0.05 | 0.05 | 0.05 | 0.06 | 0.07
8 | B8 | 0.04 | 0.08 | 0.04 | 0.04 | 0.05 | 0.08 | 0.09
9 | B9 | 0.05 | 0.05 | 0.05 | 0.05 | 0.05 | 0.07 | 0.16
10 | B10 | 0.05 | 0.04 | 0.05 | 0.05 | 0.05 | 0.05 | 0.07
11 | B11 | 0.05 | 0.05 | 0.05 | 0.05 | 0.05 | 0.05 | 0.06
12 | B12 | 0.05 | 0.09 | 0.38 | 1.68 | 2.49 | 2.72 | 2.63
13 | B13 | 0.05 | 0.05 | 0.06 | 0.22 | 0.17 | 0.91 | 0.17
14 | B14 | 0.05 | 0.06 | 0.08 | 0.75 | 0.77 | 1.62 | 1.32
